These results are taken from PMC8346945, “Evaluation of efficacy- versus affinity-driven agonism with biased GLP-1R ligands P5 and exendin-F1” (Biochemical Pharmacology, 2021).

This experiment has as its target SNAP-GLP-1R (glucagon-like peptide-1 receptor with an N-terminal SNAP-tag), stably expressed in HEK293 cells (UniProt P43220).
Sequence of UniProt P43220 (P43220 24-463): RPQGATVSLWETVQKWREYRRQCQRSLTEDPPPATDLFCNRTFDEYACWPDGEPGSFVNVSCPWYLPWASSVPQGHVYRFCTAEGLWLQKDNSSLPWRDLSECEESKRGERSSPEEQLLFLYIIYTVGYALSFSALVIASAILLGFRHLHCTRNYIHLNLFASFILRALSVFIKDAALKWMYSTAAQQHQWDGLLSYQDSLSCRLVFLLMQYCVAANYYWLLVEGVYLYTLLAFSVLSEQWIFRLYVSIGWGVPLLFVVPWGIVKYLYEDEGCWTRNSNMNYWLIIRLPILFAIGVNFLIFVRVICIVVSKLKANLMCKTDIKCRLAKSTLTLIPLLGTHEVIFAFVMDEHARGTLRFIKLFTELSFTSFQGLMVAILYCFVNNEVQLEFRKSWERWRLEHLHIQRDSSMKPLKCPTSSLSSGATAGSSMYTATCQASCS

For “Exendin-4 (from UniProt P26349 48-87) (peptide)”, the cAMP production in HEK293-SNAP-GLP-1R cells, 30-min stimulation, pEC50 is 9.9 pEC50 (M).
